Data reported in US20240059797A1 (GRITSTONE BIO, published 2024).
Residue numbers refer to the chain shown, from its start.

B1: G8(5G08) scFv (scFv, V domains shown)
VH: QVQLVQSGAEVKKPGASVKVSCKASGYTFTSNYMHWVRQAPGQGLEWMGWMNPNSGNTGYAQKFQGRVTMTRDTSTSTVYMELSSLRSEDTAVYYCARGLYGDYFLYYGMDVWGQGTTVTVSS
VL: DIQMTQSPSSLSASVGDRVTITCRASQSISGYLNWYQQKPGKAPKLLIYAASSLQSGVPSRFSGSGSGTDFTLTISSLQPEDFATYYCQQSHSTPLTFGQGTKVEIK
B2: G8(5F02) scFv (scFv, V domains shown)
VH: QVQLVQSGAEVKKPGASVKVSCKASGYTFTGYYIHWVRQAPGQGLEWMGVINPSGGSTTYAQKLQGRVTMTRDTSTSTVYMELSSLRSEDTAVYYCARDRDSSWTYYYYGMDVWGQGTTVTVSS
VL: EIVMTQSPATLSVSPGERATLSCRASQSVGNSLAWYQQKPGQAPRLLIYGASTRATGIPARFSGSGSGTEFTLTISSLQSEDFAVYYCQQYGSSPYTFGQGTKVEIK
B3: G8(2C11) scFv (scFv, V domains shown)
VH: QVQLVQSGAEVKKPGASVKVSCKASGYTFTSYAMNWVRQAPGQGLEWMGWINPNSGGTNYAQKFQGRVTMTRDTSTSTVYMELSSLRSEDTAVYYCARDPFWSGHYYYYGMDVWGQGTTVTVSS
VL: not shown
B4: G8(2B05) scFv (scFv, V domains shown)
VH: EVQLLESGGGLVQPGGSLRLSCAASGFDFSIYSMNWVRQAPGKGLEWVSAISGSGGSTYYADSVKGRFTISRDNSKNTLYLQMNSLRAEDTAVYYCASNGNYYGSGSYYNYWGQGTLVTVSS
VL: DIQMTQSPSSLSASVGDRVTITCRASQSISRWLAWYQQKPGKAPKLLIYAASSLQSGVPSRFSGSGSGTDFTLTISSLQPEDFATYYCQQYSTYPITIGQGTKVEIK
B5: G8(5C03) scFv (scFv, V domains shown)
VH: QVQLVQSGAEVKKPGASVKVSCKASGYTFTSYYMHWVRQAPGQGLEWMGWMNPNSGNTGYAQKFQGRVTMTRDTSTSTVYMELSSLRSEDTAVYYCARGLLGFGEFLTYGMDVWGQGTLVTVSS
VL: B4 VL with S28G, R31N, S53T, Y91T, S92Y, T93S, Y94T, I96W, I98F, V104L
B6: G8(2E06) scFv (scFv, V domains shown)
VH: QVQLVQSGAEVKKPGASVKVSCKASGYTLTTYYMHWVRQAPGQGLEWMGWINPNSGGTNYAQKFQGRVTMTRDTSTSTVYMELSSLRSEDTAVYYCARAVYYDFWSGPFDYWGQGTLVTVSS
VL: B4 VL with S28G, R31N, W32S, Y91A, S92N, T93S, Y94F, I96W, I98F, V104L
B7: G8(2C10) scFv (scFv, V domains shown)
VH: QVQLVQSGAEVKKPGASVKVSCKASGYTFTSYYMHWVRQAPGQGLEWMGWINPYSGGTNYAQKFQGRVTMTRDTSTSTVYMELSSLRSEDTAVYYCAKGGIYYGSGSYPSWGQGTLVTVSS
VL: B4 VL with S28D, I29V, R31T, Y91S, S92H, T93S, Y94T, I96Q, I98F
B8: G8(2E04) scFv (scFv, V domains shown)
VH: QVQLVQSGAEVKKPGSSVKVSCKASGGTFSSYGVSWVRQAPGQGLEWMGWISPYSGNTDYAQKFQGRVTITADESTSTAYMELSSLRSEDTAVYYCARGLYYMDVWGKGTTVTVSS
VL: DIQMTQSPSSLSASVGDRVTITCRASQSISSWLAWYQQKPGKAPKLLIYDASNLETGVPSRFSGSGSGTDFTLTISSLQPEDFATYYCQQSYSTPLTFGGGTKLEIK
B9: G8(4F05) scFv (scFv, V domains shown)
VH: B1 VH with T30S, S31N, N32M, M34L, M51I, S55T, N57D, G59N, K63T, T118K
VL: B8 VL with S28G, S31N, W32Y, D50A, N53T, E55Q, T56S, L104V
B10: G8(1C01) scFv (scFv, V domains shown)
VH: QVQLVQSGAEVKKPGASVKVSCKASGGTFSSHAISWVRQAPGQGLEWMGVIIPSGGTSYTQKFQGRVTMTRDTSTSTVYMELSSLRSEDTAVYYCARGDYYDSSGYYFPVYFDYWGQGTLVTVSS
VL: B8 VL with S28N, S30Y, S31T, W32Y, A34N, S91A, Y92N, S93G, T94F, L104V
B11: G10(4D04) scFv (scFv, V domains shown)
VH: QVQLVQSGAEVKKPGASVKVSCKASGYTFTGYYVHWVRQAPGQGLEWMGIIAPSDGSTNYAQKFQGRVTMTRDTSTSTVYMELSSLRSEDTAVYYCARDPGGYMDVWGKGTTVTVSS
VL: DIQMTQSPSSLSASVGDRVTITCRASQSISSYLAWYQQKPGKAPKLLIYDASKLETGVPSRFSGSGSGTDFTLTISSLQPEDFATYYCQQSYGVPTFGQGTKLEIK
B12: G10(4A02) scFv (scFv, V domains shown)
VH: QVQLVQSGAEVKKPGASVKVSCKASGYTLSYYYMHWVRQAPGQGLEWMGMIGPSDGSTSYAQRFQGRVTMTRDTSTGTVYMELSSLRSEDTAVYYCARDTGDHFDYWGQGTLVTVSS
VL: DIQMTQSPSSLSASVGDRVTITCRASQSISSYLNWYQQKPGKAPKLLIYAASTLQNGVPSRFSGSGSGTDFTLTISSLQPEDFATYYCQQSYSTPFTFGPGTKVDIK
B13: G10(1E12) scFv (scFv, V domains shown)
VH: QVQLVQSGAEVKKPGASVKVSCKASGYIFTGYYMHWVRQAPGQGLEWMGMIGPSDGSTSYAQKFQGRVTMTRDTSTSTVYMELSSLRSEDTAVYYCAREDDSMDVWGKGTTVTVSS
VL: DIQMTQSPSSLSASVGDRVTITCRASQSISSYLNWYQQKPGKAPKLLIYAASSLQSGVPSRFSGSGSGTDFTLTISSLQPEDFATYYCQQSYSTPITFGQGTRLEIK
B14: G10(4C05) scFv (scFv, V domains shown)
VH: B13 VH with I28T, M50I, S59T, E99A, D100E, D101N, S102G, K108Q
VL: DIQMTQSPSSLSASVGDRVTITCRASQRISSYLNWYQQKPGKAPKLLIYSASTLQSGVPSRFSGSGSGTDFTLTISSLQPEDFATYYCQQSYSTPFTFGPGTKVDIK
B15: G10(4E12) scFv (scFv, V domains shown)
VH: B13 VH with I28T, K63R, D100E, S102G, K108Q
VL: B4 VL with S28G, R31T, W32Y, A50D, S92Y, T93S, I96W, I98F, K103R, V104L
B16: G10(1H08) scFv (scFv, V domains shown)
VH: QVQLVQSGAEVKKPGASVKVSCKASGVTFSTSAISWVRQAPGQGLEWMGWISPYNGNTDYAQMLQGRVTMTRDTSTSTVYMELSSLRSEDTAVYYCARDAHQYYDFWSGYYSGTYYYGMDVWGQGTTVTVSS
VL: B14 VL with R28G, S31N, N34A, T53N, S91A, T94F, F96W, P100Q, D105E
B17: G10(3E04) scFv (scFv, V domains shown)
VH: QVQLVQSGAEVKKPGASVKVSCKASGNTFIGYYVHWVRQAPGQGLEWVGIINPNGGSISYAQKFQGRVTMTRDTSTSTVYMELSSLRSEDTAVYYCARGSGDPNYYYYYGLDVWGQGTTVTVSS
VL: DIQMTQSPSSLSASVGDRVTITCQASQDISNYLNWYQQKPGKAPKLLIYAASNLQSGVPSRFSGSGSGTDFTLTISSLQPEDFATYYCQQANSLPYTFGQGTKVEIK
B18: G10(4E07) scFv (scFv, V domains shown)
VH: QVQLVQSGAEVKKPGSSVKVSCKASGYTFTGYYMHWVRQAPGQGLEWMGRISPSDGSTTYAPKFQGRVTITADESTSTAYMELSSLRSEDTAVYYCARDMGDAFDIWGQGTTVTVSS
VL: not shown
B19: G10(1H01) scFv (scFv, V domains shown)
VH: B13 VH with I28T, E99G, D100V, D101G, S102N, M103L, V105Y, K108Q, T111L
VL: B17 VL with Q24R, D28S, N53S, Q89H, A91T, N92Y, L94T, Y96L
B20: G10(1B07) scFv (scFv, V domains shown)
VH: QVQLVQSGAEVKKPGASVKVSCKASGYTFTSYYMHWVRQAPGQGLEWMGIIHPGGGTTSYAQKFQGRVTMTRDTSTSTVYMELSSLRSEDTAVYYCARDKVYGDGFDPWGQGTLVTVSS
VL: B4 VL with Y49F, A50D, S53R, Y91A, S92E, T93A, Y94F, I96Y, I98F
B21: G10(1A07) scFv (scFv, V domains shown)
VH: EVQLLESGGGLVKPGGSLRLSCAASGFTFSSYWMSWVRQAPGKGLEWVSGISARSGRTYYADSVKGRFTISRDDSKNTLYLQMNSLKTEDTAVYYCARDQDTIFGVVITWFDPWGQGTLVTVSS
VL: B4 VL with S28G, R31N, W32Y, S56G, S92F, Y94T, I96Y, I98F, V104L
B22: G10(2C04) scFv (scFv, V domains shown)
VH: QVQLVQSGAEVKKPGASVKVSCKASGGTFSNSIINWVRQAPGQGLEWMGWMNPNSGNTNYAQKFQGRVTMTRDTSTSTVYMELSSLRSEDTAVYYCAREQWPSYWYFDLWGRGTLVTVSS
VL: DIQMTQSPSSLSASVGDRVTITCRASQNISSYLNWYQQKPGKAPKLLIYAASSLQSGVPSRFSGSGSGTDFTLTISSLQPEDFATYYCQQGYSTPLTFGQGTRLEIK
B23: G10(4D10) scFv (scFv, V domains shown)
VH: B13 VH with I28T, M34L, E99D, D100G, S102A, M103F, V105I, K108Q, T111M
VL: B8 VL with S28G, L104V
B24: G10(2G11) scFv (scFv, V domains shown)
VH: QVQLVQSGAEVKKPGASVKVSCKASGGTFSTHDINWVRQAPGQGLEWMGVINPSGGSAIYAQKFQGRVTMTRDTSTSTVYMELSSLRSEDTAVYYCARDRGYSYGYFDYWGQGTLVTVSS
VL: B17 VL with Q24R, N31R, N34A, A50D, Q55E, S56T, L94F, Y96R
B25: G10(1F06) scFv (scFv, V domains shown)
VH: B13 VH with I28T, T30I, E99D, D100S, D101S, S102G, M103L, V105P, K108Q, T111L
VL: B17 VL with Q24R, D28S, A50K, N53S, Q55E, A91S, N92Y, S93I, L94I, V104L

The binders below were run against HLA-A*02:01_… (HLA-PEPTIDE target G8), recombinant complex (human, enzymatically biotinylated (BirA) for screening and functional assays) (assay: scFv PPE ELISA).
With B1 the “fold selective binding to target pHLA over minipool of negative control pHLAs” value (“fold selective binding to target pHLA” below) was at least 3 fold. B2 was tested, and the “fold selective binding to target pHLA” value was at least 3 fold. For B3, the “fold selective binding to target pHLA” value was at least 3 fold. With B4 the “fold selective binding to target pHLA” value was at least 3 fold. For B5, the “fold selective binding to target pHLA” value was at least 3 fold. B6 was tested, and the “fold selective binding to target pHLA” value was at least 3 fold. B7 was tested, and the “fold selective binding to target pHLA” value was at least 3 fold. For B8, the “fold selective binding to target pHLA” value was at least 3 fold. In the case of B9, the “fold selective binding to target pHLA” value is reported as at least 3 fold. B10 was tested, and the “fold selective binding to target pHLA” value was at least 3 fold.

What follows are binders tested against HLA-A*01:01_… (HLA-PEPTIDE target G10), recombinant biotinylated complex (human, enzymatically biotinylated (BirA)) (assay: scFv PPE ELISA).
B11 was tested, and the “fold selective binding to target pHLA” value was at least 3 fold. B12 was tested, and the “fold selective binding to target pHLA” value was at least 3 fold. With B13 the “fold selective binding to target pHLA” value was at least 3 fold. For B14, the “fold selective binding to target pHLA” value was at least 3 fold. B15 was tested, and the “fold selective binding to target pHLA” value was at least 3 fold. In the case of B16, the “fold selective binding to target pHLA” value is reported as at least 3 fold. B17 was tested, and the “fold selective binding to target pHLA” value was at least 3 fold. B18 was tested, and the “fold selective binding to target pHLA” value was at least 3 fold. In the case of B19, the “fold selective binding to target pHLA” value is reported as at least 3 fold. For B20, the “fold selective binding to target pHLA” value was at least 3 fold. With B21 the “fold selective binding to target pHLA” value was at least 3 fold. For B22, the “fold selective binding to target pHLA” value was at least 3 fold. B23 was tested, and the “fold selective binding to target pHLA” value was at least 3 fold. For B24, the “fold selective binding to target pHLA” value was at least 3 fold. In the case of B25, the “fold selective binding to target pHLA” value is reported as at least 3 fold.
